According to publication PMC11847488, “Hydroxycinnamoyl-coenzyme A: tetrahydroxyhexanedioate hydroxycinnamoyl transferase (HHHT) from Phaseolus vulgaris L.: phylogeny, expression pattern, kinetic parameters, and active site analysis” (PeerJ, 2025):

Tests used:
Assay in all cases: purified protein
Format in all cases: biochemical, Phaseolus vulgaris
purified protein [1] = substrate: O=C(O)[C@@H](O)[C@@H](O)[C@H](O)[C@@H](O)C(=O)O; conditions: co-substrate p-coumaroyl-CoA 100 μM, 100 mM sodium phosphate, pH 7.5, 1 mM EDTA, 25 °C
purified protein [2] = substrate: O=C(O)[C@@H](O)[C@H](O)[C@H](O)[C@@H](O)C(=O)O; conditions: co-substrate p-coumaroyl-CoA 100 μM, 100 mM sodium phosphate, pH 7.5, 1 mM EDTA, 25 °C
purified protein [3] = substrate: CC(C)(COP(=O)(O)OP(=O)(O)OC[C@H]1O[C@@H](n2cnc3c(N)ncnc32)[C@H](O)[C@@H]1OP(=O)(O)O)[C@@H](O)C(=O)NCCC(=O)NCCSC(=O)/C=C/c1ccc(O)cc1; conditions: co-substrate saccharic acid 20 mM, 100 mM sodium phosphate, pH 7.5, 1 mM EDTA, 25 °C
purified protein [4] = substrate: COc1cc(/C=C/C(=O)SCCNC(=O)CCNC(=O)[C@H](O)C(C)(C)COP(=O)(O)OP(=O)(O)OC[C@H]2O[C@@H](n3cnc4c(N)ncnc43)[C@H](O)[C@@H]2OP(=O)(O)O)ccc1O; conditions: co-substrate saccharic acid 20 mM, 100 mM sodium phosphate, pH 7.5, 1 mM EDTA, 25 °C
purified protein [5] = substrate: CC(C)(COP(=O)(O)OP(=O)(O)OC[C@H]1O[C@@H](n2cnc3c(N)ncnc32)[C@H](O)[C@@H]1OP(=O)(O)O)[C@@H](O)C(=O)NCCC(=O)NCCSC(=O)/C=C/c1ccc(O)c(O)c1; conditions: co-substrate saccharic acid 20 mM, 100 mM sodium phosphate, pH 7.5, 1 mM EDTA, 25 °C

B1: HHHT (PvHHHT) (Phaseolus vulgaris) (protein)
chain: MVTIVASYRVLPCEETPKGHLWLADSDQVVRSGHTPTFYVYQAKHNHDTNERLRKSLGEILVHYYPVAGRLSLAEDARIQLDCNAKGVTFIEAETTKSMADYGDFSPGVVAELVPKIDYTQPVEEIPLMLVQSTRLPGGNGFVIGLAVCHVLSDGLGSIQFINSWAKLGRGETLEPHELPYLDRTVLKHQHSSTSPSPCFDHPELKPLPLKLGSSDINAEQKKKTRAVLLKLTRQQVEKLKKEANEQPLQEGVRAYSRFEALAGHIWRSASKARELEEKQPTVVRFNADIRSRVIPPLPKNYYGNALAATVTPKCYVGEIVSKPLSYAAQKVREAIEKLTNEYIRSQLKNVLGEEQLDCIRRLFMGEGERRNVPFAGNPNLHITSWMSMPLYEADFGWGKPVNFGLAYVFAQDRAVIILSPHGDGSIVISMTFQEEHLELFKKFFYETI
notes: full length, N-terminal 6xHis tag (pET28a(+)), codon-optimized, E. coli Rosetta 2 (DE3) pLysS, IMAC purified; tag cleavage not mentioned
Km (purified protein [1]): 5,200 ± 500 μM | kcat (purified protein [1]): 6.4 ± 0.2 s⁻¹ | kcat/Km (purified protein [1]): 1200 ± 100 M⁻¹ s⁻¹ | Km (purified protein [2]): 4,400 ± 700 μM | kcat (purified protein [2]): 1.5 ± 0.1 s⁻¹ | kcat/Km (purified protein [2]): 340 ± 50 M⁻¹ s⁻¹ | Km (purified protein [3]): 7.2 ± 0.5 µM | kcat (purified protein [3]): 5.9 ± 0.1 s⁻¹ | kcat/Km (purified protein [3]): 820000 ± 60000 M⁻¹ s⁻¹ | Km (purified protein [4]): 9.6 ± 0.4 µM | kcat (purified protein [4]): 6 ± 0.1 s⁻¹ | kcat/Km (purified protein [4]): 630000 ± 20000 M⁻¹ s⁻¹ | Km (purified protein [5]): 5.8 ± 0.4 µM | kcat (purified protein [5]): 3.4 ± 0.1 s⁻¹ | kcat/Km (purified protein [5]): 590000 ± 40000 M⁻¹ s⁻¹
